Laboratory results taken from patent US20230241072A1, “ANTHRACYCLINE DERIVATIVES” (ALMAC DISCOVERY LIMITED, priority 2019, published 2023).

Molecular target: ROR1 on the surface of human cancer cells (human) (UniProt Q01973)
Assay: cell-based or functional assay

Row | Binder | IC50 (nM) 96 h, cell viability (Cell Titre Glo), 697 cells [nM] | IC50 (nM) 96 h, cell viability (Cell Titre Glo), Kasumi-2 cells [nM] | IC50 (nM) 96 h, cell viability (Cell Titre Glo), MHH-ES1 cells [nM] | IC50 (nM) 96 h, cell viability (Cell Titre Glo), PA-1 cells [nM] | ROR1 targeting/2V non-targeting window, 697 cells [fold] | ROR1 targeting/2V non-targeting window, Kasumi-2 cells [fold] | ROR1 targeting/2V non-targeting window, MHH-ES1 cells [fold] | ROR1 targeting/2V non-targeting window, PA-1 cells [fold]
1 | P3A1hFc-PEG4-vc-PAB-EDA-PNU (Fc fusion, not shown: a dimerising Fc or GST, MA-PEG4-vc-PAB-EDA-PNU159682 on Cys 239 (EU) of the Fc) TRVDQTPRTATKETGESLTINCVLTDTSYGLYSTSWFRKNPGTTDWERMSIGGRYVESVNKGAKSFSLRIKDLTVADSATYYCKAREARHPWLRQWYDGAGTVLTVNGGGGSGGGGSGGGGS | 52 | 3.2 | 24 | 0.1 | 1.2 | 18 | 1.1 | 73
2 | P3A1hFc(442)-PEG4-va-EDA-PNU (Fc fusion, not shown: a dimerising Fc or GST, MA-PEG4-va-EDA-PNU159682 on Cys 442 (EU) of the Fc) TRVDQTPRTATKETGESLTINCVLTDTSYGLYSTSWFRKNPGTTDWERMSIGGRYVESVNKGAKSFSLRIKDLTVADSATYYCKAREARHPWLRQWYDGAGTVLTVNGGGGSGGGGSGGGGS | – | 9.1 | 37.5 | 0.025 | – | – | – | –
3 | P3A1hFc-PEG4-va-EDA-PNU (Fc fusion, not shown: a dimerising Fc or GST, MA-PEG4-va-EDA-PNU159682 on Cys 239 (EU) of the Fc) TRVDQTPRTATKETGESLTINCVLTDTSYGLYSTSWFRKNPGTTDWERMSIGGRYVESVNKGAKSFSLRIKDLTVADSATYYCKAREARHPWLRQWYDGAGTVLTVNGGGGSGGGGSGGGGS | 61 | 2.3 | 18 | 0.15 | 4 | 43 | 8.4 | 360
